Several values for one entry are separate records, joined by “and”; a condition that tells them apart may be missing. Equal entries are not always repeated. Bridge positions count the residues as written; N and C are the ends. Square brackets hold non-standard residues; d marks the D form. Ends that are not written are not given here. I, II: the chains in the order shown. Phe(4-NH2) = Nc1ccc(C[C@H](N)C(=O)O)cc1
B1: IGF1 (Y^B16L^B17) (p-NH2-F)^A19 amide (ligand)
chain 1: GIVDECCFRSCDLRRLEM[Phe(4-NH2)]CA
chain 2: GPETLCGAELVDALYLVCGDRGFYFNKPT
modifications: not fully specified; ends and bridges not checked
notes: also called IGF1 (Y^B16L^B17) A(p-NH2-F)^19
B2: MIU-57: B1-PEG20K MIU-35 (ligand)
chain: {PEG 20 kDa}-GPEHLCGAHLVDALYLVCGDRGFYGYGSSSRRAPQTGIVDECCHRSCDLRRLENYCN
modifications: ends and bridges not checked
B3: IGF-1 A:IGF-1 B(1-8)-In (9-17)-IGF-1 B(18-30) (ligand)
chain 1: GIVDECCFRSCDLRRLEMYCA-NH2
chain 2: GPETLCGSHLVEALYLVCGDRGFYFNKPT-NH2
modifications: disulfide I:6-I:11, I:20-II:18, I:7-II:6 (inferred); not fully specified
notes: chimeric B chain
B4: IGF-1 A:B (ligand, human)
chain 1: GIVDECCFRSCDLRRLEMYCA
chain 2: GPETLCGAELVDALQFVCGDRGFYFNKPT
modifications: not fully specified (C-terminus); ends and bridges not checked; also: C-terminal amide, chain not given here
notes: domain: B chain; two-chain form of IGF-1
B5: IGF-1 A:B(H5D10Y16L17) (S═O) DPI (ligand)
chain 1: GIVDECCFRSCDLRRLEMYCA-NH2
chain 2: GPEHLCGADLVDALYLVCGDRGFY-NH2
modifications: ends and bridges not checked; also: (S═O) oxidation, residue not given here
B6: IGF-2 AB(YL) (ligand)
chain 1: not shown
chain 2: AYRPSETLCGGELVDTLYLVCGDRGFYFSRPA
modifications: C-terminal amide
B7: IGF-1 A:B (H5D10Y16L17) DPI (ligand)
chain 1: GIVDECCFRSCDLRRLEMYCA-NH2
chain 2: GPEHLCGADLVDALYLVCGDRGFY-NH2
modifications: cysteine pairing not given here
B8: IGF-1 A (H8 A9 N21):B(H5D10Y16L17A22) (S═O) DPI A-COOH (ligand)
chain 1: GIVDECCHASCDLRRLEMYCN-OH
chain 2: GPEHLCGADLVDALYLVCGDAGFY
modifications: not fully specified (C-terminus); ends and bridges not checked; also: (S═O) oxidation, residue not given here
B9: IGF-1 A (H8 A9 N21):B(H5D10Y16L17 A22) DPI A-COOH (ligand)
chain 1: GIVDECCHASCDLRRLEMYCN-OH
chain 2: GPEHLCGADLVDALYLVCGDAGFY
modifications: not fully specified (C-terminus); ends and bridges not checked
B10: B^1(H5,10Y16L17)25-C^1-A^1(T8N18,21) (ligand)
chain: GPEHLCGAHLVDALYLVCGDRGFYGYGSSSRRAPQTGIVDECCTRSCDLRRLENYCN
B11: GE5W-B^1(H5,10Y16L17)25-C^1-A^1(A1H8N18,21) (ligand)
chain: GEEEEEWGPEHLCGAHLVDALYLVCGDRGFYGYGSSSRRAPQTAIVDECCHRSCDLRRLENYCN
B12: IGF-1 A:B(E10Y16L17) (ligand)
chain 1: GIVDECCFRSCDLRRLEMYCA-NH2
chain 2: GPETLCGAELVDALYLVCGDRGFYFNKPT-NH2
modifications: cysteine pairing not given here
B13: IGF-1 A:B(D10Y16L17) DPI A-COOH (ligand)
chain 1: GIVDECCFRSCDLRRLEMYCA-OH
chain 2: GPETLCGADLVDALYLVCGDRGFY-NH2
modifications: ends and bridges not checked
B14: IGF-1 A (H8 A9 N21):B(H5D10Y16L17) DPI A-COOH (ligand)
chain 1: GIVDECCHASCDLRRLEMYCN-OH
chain 2: GPEHLCGADLVDALYLVCGDRGFY
modifications: not fully specified (C-terminus); ends and bridges not checked
B15: IGF-1 A:B(E10Y16L17)-E31E32 B-COOH (ligand)
chain 1: GIVDECCFRSCDLRRLEMYCA
chain 2: GPETLCGAELVDALYLVCGDRGFYFNKPTEE-OH
modifications: not fully specified (C-terminus); ends and bridges not checked
B16: IGF-1 A:In B(1-5)-IGF-1 B(YL) (6-30) (ligand)
chain 1: GIVDECCFRSCDLRRLEMYCA
chain 2: FVNQHLCGAELVDALYLVCGDRGFYFNKPT
modifications: ends and bridges not checked; also: C-terminal amide, chain not given here
notes: chimeric B chain
B17: IGF-1 A:B (E10Y16L17) DPI (ligand)
chain 1: GIVDECCFRSCDLRRLEMYCA-NH2
chain 2: GPETLCGAELVDALYLVCGDRGFY-NH2
modifications: cysteine pairing not given here
B18: IGF1(Y^B16L^B17)(AlaPro)^A-1,0 (ligand)
chain 1: APGIVDECCFRSCDLRRLEMYCA
chain 2: GPETLCGAELVDALYLVCGDRGFYFNKPT

Molecular target: T1, human insulin receptor (human, UniProt P06213 28-1382)
T1 construct: whole, on cells; receptor-transfected HEK293 cells in the phosphorylation assay
Assay: competition SPA, [125I]insulin

Binder	IC50
B1	1.08 nM

Molecular target: T2, human IGF-1 receptor (human, UniProt P08069 31-1367)
Assay: cell-based or functional assay

Binder	% Insulin Activity (in vitro, assay not named)
B2	1.2%

Molecular target: T1, human insulin receptor
Assay: competition SPA, [125I]insulin
Remark: another data set of the same source
Protocol: (§1) Non-specifically bound (NSB) radioactivity was measured in the wells with a four-fold concentration excess of “cold” native ligand than the highest concentration in test samples. Total bound radioactivity was detected in the wells with no competitor. Percent specific binding was calculated as following: % Specific Binding=(Bound-NSB/Total bound-NSB)×100. IC50 values were determined by using Origin software (OriginLab, Northampton, Mass.).

Binder	% insulin (in test)	% native insulin activity (0.6 nM)	IC50
B3	19.1%	37.7%	1.59 nM
B4	5.8%	5.8%	10.4 nM
B5	316%		0.25 nM
B6			6.81 nM
B7	479%		0.16 nM
B8	401%		
B9	1170%		0.12 nM

Molecular target: T2, human IGF-1 receptor
Assay: cell-based or functional assay
Remark: another data set of the same source

Binder	Phosphorylation (EC50), % IGF-1 R
B2	1.2%

Molecular target: T2, human IGF-1 receptor
Assay: cell-based or functional assay
Remark: another data set of the same source

Binder	% (potency at the receptor, assay not named)
B10	3.7%
B2	1.2%
B11	0.5%

Molecular target: T1, human insulin receptor
Assay: cell-based or functional assay

Binder	% Insulin	EC50, receptor phosphorylation
B12	49.2%	2.57 nM
B13	1580%	
B9		0.35 nM and 0.44 nM
B14		0.15 nM and 0.25 nM
B15		7 nM and 8.52 nM

Molecular target: T2, human IGF-1 receptor
Assay: cell-based or functional assay
Remark: another data set of the same source

Binder	% IGF	EC50, receptor phosphorylation
B7	7.1%	12.2 nM
B13	112%	0.78 nM
B9	7.7%	11.3 nM
B14	181%	0.43 nM

Molecular target: T2, human IGF-1 receptor
Assay: competition SPA, [125I]IGF-1
Protocol: as §1

Binder	% IGF-1 (in test)	% native IGF-1 activity (0.55 nM)
B3	0.3%	0.4%
B16	3.6%	2%
B7	11.2%	11.8%
B13	7.7%	8.1%
B9	2.3%	2.4%
B17	3.3%	2.4%
B14	12.9%	13.6%
B15	3%	3.1%

Molecular target: T1, human insulin receptor
Assay: competition SPA, [125I]insulin
Remark: another data set of the same source

Binder	IC50
B18	1.93 nM

Source: US20150274802A1 (INDIANA UNIVERSITY RESEARCH AND TECHNOLOGY, published 2015)
